# Laboratory results from publication PMC7505563.
# Biological target: T1, MatP, tag cleaved (Escherichia coli, UniProt P0A8N0 1-150)
# T1 sequence: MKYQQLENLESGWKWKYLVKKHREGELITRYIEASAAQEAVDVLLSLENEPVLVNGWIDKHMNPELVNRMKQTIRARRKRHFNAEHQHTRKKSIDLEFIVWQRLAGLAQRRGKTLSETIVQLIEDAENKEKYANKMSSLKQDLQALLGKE
# Experiment: crystal structure
binder,measurement,value
matS 19mer (dsDNA) DNA 1: TTCGTGACATTGTCACGAA DNA 2: TTCGTGACAATGTCACGAA,binding result,binds
